This is an account of results in a protein production outcome set (Wang et al. 2014).
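Note: failed if final PepcDB status was selected cloned or expressed and not failed if soluble or beyond.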

This data set is described as follows: label from the status in PepcDB records.
Consider “MDTAVNESLSISYNLEQFLIVLSVSLSIATLSKTVPILRKIPYTLLLVIVGMALAFVDVKLINLSPELIMEIFLPPLLFEAAWNLQWRNLKENWFPITLFATLGVVICVVGIAFPLSYWGGMELAIAFLAAAALSATDPVSVIALFKELGASKKLNTLMEGESLFNDGVAVVVFLILVGIPLGTSTFDLSVTLARFVTVIGIGVGCGLVIGFSLSLLTQRFDLPFVEQSLTLVSAYGAYILAENLGGSGVIGVVVVGMVLGNYGSRIGMNPRTRLIVSIFWEFVAFFVNSIIFLLIGDQIGLSSLSDHLNLILIAIAAVVVTRLVSVFGLSLISNKVSDQISSTHITLQEQTVLWWGGLRGSVAIAVALSVPQAIAERQAIIDIVFGVVLFTLLVQGLTTQFVLKGLDLIGDQPQRLEYAELVSRQIALRRVLAELEKTDEFPDINPERLRYKQELVQGQLQSVTDKLKLLLQEYPLLQEVANKKFDQTVLDIEAETYADLIRMGRLEENIMPLLVTLEGENVAEPS”, for which the protein production entry is reported as “failed”.

In the case of “MDTEIHNPHIPGGRPPSRPAIAALTFVIFMSLTLASWSVVQDLQERHENTRFDKRVAEVIHKIEHHFSGYEQVLKGALGHLLASPSVSRNEWRTYVNALRINDRYPGIHGIGFAKYIPRSGLAAHTEEVRAEGFPSYKVWPGTPRQEYTSIIYLEPFTGSNLRAFGYDMFSNAVRRAAMSRARDTGEVALTRKVKLVQETGEDIQAGVLMYLPYYGAANLPKTVEERRASLGGYVYAPFRMVDFVRATLGSELDILDLRIFDGKAMAEDSLLFDSVKHRSGPSPVPKFKRVIPISLYGQTWALEASSRPAFEKAIKNYEALLVLLGGFVVSMLTAMVSFVLSGNKEKAAALGHVNKKLLLAMEEQQATTRELSNAKLRTERILESITDAFYTLDREWRFTYVNKEAENLLQRNREDLLGRVCWEEFKETAGTTFDREYHRALMENRTVTFEEFYVPLDEWFEVHAYPSEEGLTVYFRDITERKESEQARQEAHVRIRQQASLLDKATDAIIVFGMDNCIEFWNQGAERLYGWTSEEVMGREVEMLYDNVAVFDEANRALLSSGEWRGELAQRRRDQSMLNVEAHWTLVRNDDGEPQAIFAINTDITQRKSAENEILHLALYDSLTGLPNRRLLLDRLGHALAVSARNQRMGALLFIDLDNFKLLNDTLGHDMGDLLLRQVAPRLSSCVRESDTVARLGGDEFVVILMGDFGEDHDEALTQISTICERIRSAFIQPFNLDPYIHHITPSIGIALFNDQSQTTNELLKRADLAMYQAKASGRNAMRFFDPDMQAAMNARAILESELYKSWERNEFILHYQLQVDSRGIIGAEALVRWQHPRRGLLPPSEFIPQAEETGLILPLGEWVLETACNQLASWALQPETVQLNLSVNVSSLQFCQPDFVEQVISILDRTGANPQRLKLELTESILVHDMDDTIAKMMTLKARGVGFALDDFGIGYSSLYYLKRLPLDWVKIDRSFVRDVLTDNNDATIVRTILLLAKSMGLAVIAEGVETGAQKDFLASHGCTAYQGYLFSRPLPLEQFERFVQPAAGGAV”, the protein production result is “failed”.

As to “MDTKKIKTSCLINNYNYAAFLSEAVASTLRQTVKFDEIIIVDDASTDNSAEVIAKFAQQADIKYILKEKNQGQLSSFNEAFLNASGDIIFFLDADDAYEPEYLETVLNFYNRRSECDFVFCAYKKFGAVEGTFQDYEIDVDLGYSVIRTLCNGEWIGSITSTLSMRRDILRKVLPIPNTEDWRVRADDCLVWGASLVGAKKFYLSQPLVRYRIHQNNQFHNSKFVNTDKDYEYKRFWKRNSLFNYILQKNNLELPFLLAFTSLNELKTIPCPNNQDFISYLKIIFLFEKNVYWKIKGIFLLFNYLGKFLLNGKLQIR”, the protein production result is “failed”.

On to “MDTLPHHLLDEILFRIDHRSLAMIQCTNRSLQSHISKTPNFASEYFSRIRSSLLYIATHGCPLICYHLYGDSRSPRTVETLTQCHILGYCSGLLLLFLNKNLCVANPLTKKFRFLNHSRSKFFPTDFTLRGGRQQVIGFAVDQTDRTTPSFKIVNIKEGAVHWLRNDGSIVAFNLKTEKARLIPIRFPKELCLKTLFTAVDNNLTLISATEEVIYVYAFHNILSDPKWVLVKQIRNGVLDEKRLYSWYVEAYDGKSLVLRETILKKDYYNKHLKQVLHGYDLRANKWEVIGSIPEWSPSGLDFYQFTPSPSSVIGLDDKEGEEILACDDKRIPSVNAIMRLIYGIS”, for which the protein production entry is given as “failed”.

For the sequence “MDTNYKMLYEKYEKLKNEFSTYQNFAETQIQRMNGKNTELEKKLDILTNVIEVSKYINSNISDDNLVPMINDMIIGILGVTYSTIYLVEDDEKLIVKASNVMDNYDIIVNPVFSTFSDNRPIVINSKEPLFKEFKNKLKVHSIIGVPITLRDNFRGYIIVEHTLYDFFSHGHIKFISSIANQIAIAIENSFLYKKVKESSIKDPFLGIYNRKHFFDMIEGKVAKDSRRSFAIVMLDIDHFKSFNDSYGHQFGDEVLIQTAKILEQSIGEKDEVARYGGEEIVLYLNDAQSKEKVFKTVDGIRASLSNNSVRHGGIEKRVTASFGISYYPQNGETVEKVVSVADAMLYEAKNSGRNKVVSSL”, the protein production entry was “failed”.

As for “MDTQNLPDQIIPIFMSFDKNYALGASVSLYSLLSHASRHTSMIDFSPLNQSNKLLGANIVYKIHCLVKGVTLEQQNKLLKTIAPFKKFASLEFIHINSLDHSIESYLNKSCSKRYGGLLVLCRLLLASLFPNYSKIISIDADTVFLGDVASAYFALDNDPTKSLGMVRDTFSHLSFEAFCDFCKRACKNFKIDFSRFSPDELKRIHQGFNMGFLVAHLDRWRQDGFEKTALEFLKTRGKDLFYPEQCLVNMVFWERILELPIYYNCYSDFFKEHYPKNIIMLHFIKYKPWRSVSSLNGRLICYEAEASFWLANLFHTPFKNDFFKERLEMAKDQQMQSFKTHIRSQTIRNYLGFRVKNILKKVFKLSLEHHHHHH”, the protein production result was “not failed”.

Take “MDTQTLNSDLRVFMHHIYEFEKGVRSMVLATLANDDIPYAEERLRSRQIPYFAQPTPNTERTNLFFGCKECMEAIRLFVSGRSLNSLTPEEDFIIGAMLGYDICRQCERYCRRKSNS”: the protein production entry is listed as “not failed”.

Take “MDTVILITVIIVIVGLAFDFINGFHDIANAVATSISTRALKPRVAIGIAAVMNFLGAISFTGVAESLTKSIVDPFSLNNGEFVVLCGLIAAVIWNLMTWLVGMPSSSSHALIGAIAGASIASASSFSVLNWSGFTTIIIALIISPIIGFTVGYLIYSLFKHLFHDKKLGKMNRRFRFIQIGTAAAQAYSHGTNDAQKTMGIITLALVASGLLKESAGIPFWVQVSCAASMAIGSSVGGYRIIKTVGTKIMKITPVTGVASDLSSLSVIMTATLIHLPVSTTQVIDSSIMGVGTANHKKEVNWRTGKNMVVTWFITLPLAGLLAAVVYWISAAIFL”: the protein production result was “failed”.

On to “MDVFDGLPDPIIVDILNKVGDVKTLLRCSSLSKRFNSLVPQSESLTLRLDHSVSDSPVVTSIFRSLFNGLVSLLSKPAKPITITTLSPSLPFKILSRFDRIRNLDVELPGGDVKLEKGAAVKWKAEFGKTLKSCVIVAFRSAGTVSSPVAVEGESDAEFVTGLKTRVVWTISALMAASSRHYLMREVVKEHEEIESLVMRDKEREGTVVMNEEGLKELRNTEARVEDEERVVKNKRSVVPSVRMSMRHAPSLKLKSGICLESATLVIVRPSGADFEVGDDAELATEAFVGDCMYGEAVVALLKCKKNALEMNSF”, for which the protein production result is given as “failed”.

With “MDVGSFGFTIAGLVVGFIVGMTGVGGGSLMTPILLWFGIHPATAVGTDLLYAAITKASGVWVHARNKNIDWKITGLLSLGSVPAAALTLWFLSTLHTDTSALNAIIKQGLAVVLILTALAILFKSRLQAFASRHAGDHYHLSDRSLNILTVLTGVVLGIMVTLTSIGAGALGTVALFLLYPFLVTRRLVGTEIAHAVPLTLVAGLGHAGMGNMDWSLLGYLLLGSLPGIYLGSHLTGRISDRVLRPCLATMLLLIGYKLAF”, the protein production result is “failed”.

“MDVHQLTEQALALLLQHTGADGGAILIEVDGEIRVAASQGIGSAHTLANNDRVRSALRTERRHRVQLPEDLVVDGMLAQFRPKEVIIDPVRHKEVVLGAVVLASGQGFSAEDRNRLDVFERGLALALHNALLYDRLQTLAALDPLTGALEHHHHHH”: the protein production entry is recorded as “not failed”.
